Data as given in patent US20220153863A1 (published 2022).
Positions count from the first letter of the chain named.

Tests used:
[1] = molecular target: T1, PRAME (Preferentially Expressed Antigen in Melanoma) on PRAME+ cells (human, UniProt P78395 1-509); assay: flow cytometry, titrated antibody on THP-1 cells
T1 construct: whole, on cells; Endogenous PRAME on the THP-1 human cell line; also called THP-1 cells
Text: MPA1 (Pankov et al., 2017), a rabbit anti-PRAME polyclonal antibody was included as reference for comparison.

[2] = molecular target: T2, PRAME peptide, amino acids Arg310-Asn331 of PRAME, conjugated to biotin or BSA (UniProt P78395 310-331, conjugated to either biotin or bovine serum albumin (BSA); site not stated); assay: ELISA with monoclonal phage supernatants
T2 construct: range 310-331
T2 peptide (looked up): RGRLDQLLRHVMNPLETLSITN
Text: 184 PRAME binding phage clones yielded 35 membrane target hits with 6 unique sequences. Clones with unique antibody sequences were chosen for further analysis.

T1 sequence (P78395 whole entry): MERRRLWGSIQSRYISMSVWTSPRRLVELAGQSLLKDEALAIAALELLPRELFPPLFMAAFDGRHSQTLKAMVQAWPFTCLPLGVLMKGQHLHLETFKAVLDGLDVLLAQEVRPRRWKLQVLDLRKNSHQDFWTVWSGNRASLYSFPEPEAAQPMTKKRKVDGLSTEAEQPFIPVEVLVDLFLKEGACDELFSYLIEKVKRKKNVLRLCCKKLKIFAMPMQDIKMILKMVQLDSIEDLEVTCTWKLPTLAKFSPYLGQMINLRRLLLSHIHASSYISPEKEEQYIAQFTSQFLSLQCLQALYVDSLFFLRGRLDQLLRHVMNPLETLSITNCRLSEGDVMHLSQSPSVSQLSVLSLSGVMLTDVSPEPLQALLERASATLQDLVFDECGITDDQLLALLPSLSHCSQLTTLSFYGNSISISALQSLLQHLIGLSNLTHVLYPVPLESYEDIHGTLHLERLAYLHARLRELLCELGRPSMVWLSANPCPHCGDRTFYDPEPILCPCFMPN

B1: B029_1A7 full-length human IgG1 (antibody, V domains shown)
VH: EVQLLESGGGLVQPGGSLRLSCAASGFTFSSYWMSWVRQAPGKGLEWVSDISGSGGSTYYADSVKGRFTISRDNSKNTLYLQMNSLRAEDTAVYYCASLPDSSGYYHWFDPWGQGTLVTVSS
VL: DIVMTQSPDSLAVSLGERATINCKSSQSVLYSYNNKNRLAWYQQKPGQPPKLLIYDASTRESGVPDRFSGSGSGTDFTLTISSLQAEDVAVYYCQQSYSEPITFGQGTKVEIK
**Q.** Which EC50 [1] does the source give for B1 here?
**A.** 1.45 nM

B2: B029_1A6 scFv displayed on phage (monoclonal phage clone) (scFv, V domains shown)
VH: EVQLLESGGGLVQPGGSLRLSCAASGFTFSNYAMSWVRQAPGKGLEWVSAISGSGGSTYYADSVKGRFTISRDNSKNTLYLQMNSLRAEDTAVYYCARGGLVLSPWGQGTLVTVSS
VL: EIVLTQSPGTLSLSPGERATLSCRASQSVSSNSLAWYQQKPGQAPRLLIYDASSRATGIPDRFSGSGSGTDFTLTISRLEPEDFAVYYCQQYESSPLTFGQGTKVEIK
**Q.** Does B2 bind [2]?
**A.** binds

B3: B029_1A7 scFv displayed on phage (monoclonal phage clone) (scFv, V domains shown)
VH: B1 VH
VL: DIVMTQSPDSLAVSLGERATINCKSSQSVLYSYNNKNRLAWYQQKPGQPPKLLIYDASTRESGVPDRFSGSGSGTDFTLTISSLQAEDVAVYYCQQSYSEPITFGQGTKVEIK
**Q.** Does B3 bind [2]?
**A.** binds

B4: B029_1G7 scFv displayed on phage (monoclonal phage clone) (scFv, V domains shown)
VH: EVQLLESGGGLVQPGGSLRLSCAASGFTFTDSAMSWVRQAPGKGLEWVSDIDGSGSGGGTYYADSVKGRFTISRDNSKNTLYLQMNSLRAEDTAVYYCATDRGWGTFDFWGQGTLVTVSS
VL: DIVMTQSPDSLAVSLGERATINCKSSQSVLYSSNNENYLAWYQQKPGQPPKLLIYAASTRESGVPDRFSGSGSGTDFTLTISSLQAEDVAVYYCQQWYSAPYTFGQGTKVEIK
**Q.** Does B4 bind [2]?
**A.** binds

B5: B029_1H1 scFv displayed on phage (monoclonal phage clone) (scFv, V domains shown)
VH: EVQLLESGGGLVQPGGSLRLSCAASGFTFSSYAMSWVRQAPGKGLEWVSEIDGEGDSTKYADSVKGRFTISRDNSKNTLYLQMNSLRAEDTAVYYCAKEYYDIFDGTDVWGQGTTVTVSS
VL: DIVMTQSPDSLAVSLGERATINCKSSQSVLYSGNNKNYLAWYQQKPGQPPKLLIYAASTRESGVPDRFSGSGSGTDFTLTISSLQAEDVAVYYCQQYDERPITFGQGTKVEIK
**Q.** Does B5 bind [2]?
**A.** binds

B6: B029_2D4 scFv displayed on phage (monoclonal phage clone) (scFv, V domains shown)
VH: EVQLLESGGGLVQPGGSLRLSCAASGFTFSSYAMSWVRQAPGKGLEWVSAISGSGDSTYYADSVKGRFTISRDNSKNTLYLQMNSLRAEDTAVYYCARDVDSFEGGMDVWGQGTTVTVSS
VL: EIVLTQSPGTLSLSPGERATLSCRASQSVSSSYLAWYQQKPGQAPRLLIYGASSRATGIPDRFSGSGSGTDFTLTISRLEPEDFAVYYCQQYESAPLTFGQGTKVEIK
**Q.** Does B6 bind [2]?
**A.** binds

B7: B029_2H1 scFv displayed on phage (monoclonal phage clone) (scFv, V domains shown)
VH: EVQLLESGGGLVQPGGSLRLSCAASGFTFTDYAMSWVRQAPGKGLEWVSWISGSGGSTKYADSVKGRFTISRDNSKNTLYLQMNSLRAEDTAVYYCAKCYDILTGYSIDYGMDVWGQGTTVTVSS
VL: B2 VL with N32T, S33Y, D51G, E93S, S95A, L97F
**Q.** Does B7 bind [2]?
**A.** binds
